From patent publication CN117412992A (NOVIMMUNE SA, dated 2024)

B1: S79 anti-PD-L1 mAb (antibody, human IgG1, lambda, V domains shown)
VH: not shown
VL: QSALTQPASVSGSPGQSITISCTGTSSDVFRPPLVSWYQQHPGKAPKLMIYFASLRPSGVSNRFSGSKSGNTASLTISGLQAEDEADYYCSSWDHTGDGHVFGGGTKLTVLG
notes: also called S79_Sc3_1G7_VLCL2 aPDL1 IGLV2-23; S79抗PD-L1 mAb
B2: K2xS23 CD47xPD-L1 bispecific antibody (bispecific antibody, human IgG1, kappa, lambda)
heavy: not shown
light 1: not shown
light 2: QSALTQPASVSGSPGQSITISCTGTSSDVAKIPLVSWYQQHPGKAPKLMIYFASLRPSGVSNRFSGSKSGNTASLTISGLQAEDEADYYCSSWDNAGDGHVFGGGTKLTVLGQPKAAPSVTLFPPSSEELQANKATLVCLISDFYPGAVTVAWKADSSPVKAGVETTTPSKQSNNKYAASSYLSLTPEQWKSHRSYSCQVTHEGSTVEKTVAPTECS
notes: kappa-lambda body with a common heavy chain; also called K2xS23 bsAb
B3: S100 anti-PD-L1 mAb (antibody, human IgG1, lambda, V domains shown)
VH: not shown
VL: QSVLTQPPSASGTPGQRVTISCSGSSSNIENKPVNWYQQLPGTAPKLLIYHDTTRPSGVPDRFSGSKSGTSASLAISGLQSEDEADYYCAAWDFATWPATEVFGGGTKLTVLG
notes: bivalent monospecific anti-PD-L1 IgG; also called S100抗PD-L1 mAb

How the values were obtained:
[1] = biological target: T1, human PD-L1 on cells (hPD-L1-transfected CHO cells; IFNg-induced HT-1080 tumour cells) (human, UniProt Q9NZQ7 19-290); test: cell-based competition: inhibition of human PD-1-moFc binding to IFNg-induced PD-L1+ CD47+ HT-1080 cells, CellInsight CX5
T1 construct: whole, on cells

[2] = biological target: T2, recombinant human PD-L1 soluble protein, biotinylated (ACROBiosystems) (human, UniProt Q9NZQ7 19-238, biotinylated); test: BLI (Table 7) and ELISA (Fig. 1A) on recombinant PD-L1
T2 construct: Bought soluble protein; also called 重组人PD-L1; 人PD-L1

[3] = biological target: T3, human CD47 on cells (Raji, Nalm-6, HT-1080 tumour cells; human red blood cells) (human, UniProt Q08722 19-323); test: flow cytometry on human red blood cells (CD47+, PD-L1-)
T3 construct: whole, on cells

[4] = biological target: T1, human PD-L1 on cells …; test: flow cytometry on IFNg-preactivated PD-L1+ CD47+ HT-1080 cells, co-engagement of both targets

Binder	IC50 [1]	binding result [2]	binding result [3]	binding result [4]
B1	2.52 pM	–	–	–
B2	–	binds	binds	binds
B3	0.84 pM	–	–	–
